T1: TRAIL-R1-hFc (ヒトTRAIL-R1の細胞外領域とヒトIgG1のFc領域とが融合したタンパク質, ALEXIS社製) (human, UniProt O00220 24-239)
T1 construct: extracellular domain; Bought (ALEXIS); not shown: human IgG1 Fc region
T1 sequence (looked up): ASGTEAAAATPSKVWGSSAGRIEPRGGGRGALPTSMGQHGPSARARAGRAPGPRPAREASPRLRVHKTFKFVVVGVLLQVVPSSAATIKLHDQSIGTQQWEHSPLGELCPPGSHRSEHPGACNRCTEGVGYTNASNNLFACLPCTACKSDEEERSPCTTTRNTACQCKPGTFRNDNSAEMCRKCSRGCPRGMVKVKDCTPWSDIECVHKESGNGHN


Key:
[1] = molecular target: ヒトTRAIL-R2 (細胞表面の受容体; Colo205, U251, Jurkat, 正常ヒト肝実質細胞) (human, UniProt O14763 56-440); test: cell-based or functional assay
[2] = molecular target: T1, TRAIL-R1-hFc …; test: ELISA, purified antibody on plate-coated TRAIL-R1-hFc (Example 4)

Row | Binder | Jurkat細胞に対するLD50 (48時間) [1] [µg/mL] | U251細胞に対するLD50 (シスプラチン4μg/ml同時添加, 48時間) [1] [µg/mL] | binding result [2]
1 | L-30-10抗体 (ハイブリドーマL-30-10, FERM BP-7700 / FERM BP-7769 の産生するヒト抗TRAIL-R2モノクローナル抗体) (antibody, V domains shown) VH: QLQLQESGPGLVKPSETLSLTCTVSGGSISSRSNYWGWIRQPPGKGLEWIGNVYYRGSTYYNSSLKSRVTISVDTSKNQFSLKLSSVTVADTAVYYCARLSVAEFDYWGQGILVTVSS VL: EIVLTQSPATLSLSPGERATLSCRASQSVSSFLAWYQQKPGQAPRLLIYDASNRATGSPARFSGSGSGTDFTLTISSLEPEDFAVYYCQQRSDWPLTFGPGTKVDIK | 0.13 | 0.17 | –
2 | E-11-13抗体 (ハイブリドーマE-11-13, FERM BP-7698 / FERM BP-7770 の産生するヒト抗TRAIL-R2モノクローナル抗体) (antibody, V domains shown) VH: QLQLQESGPGLVKPSETLSLTCTVSGGSIISKSSYWGWIRQPPGKGLEWIGSIYYSGSTFYNPSLKSRVTISVDTSKNQFSLKLSSVTAADTAVYYCARLTVAEFDYWGQGTLVTVSS VL: EIVLTQSPATLSLSPGERATLSCRASQSVSSFLAWYQQKPGQAPRLLIYDASNRATGIPARFSGSGSGTDFTLTISSLEPEDFAVYYCQQRSNWPLTFGPGTKVDIK | 0.1 | 0.3 | –
3 | KMTR1抗体 (ハイブリドーマKMTR1, FERM BP-8038 の産生するヒトモノクローナル抗体) (antibody, V domains shown, Human IgG, kappa light chain; Signal peptide limits are predictions, not N-terminal analysis) VH: EVQLLESGGGLVQPGRSLRLSCAASGFTFSSYAMSWVRQAPGKGLEWVSAISGSGGSRYYADSVKGRFTISRDNSKNTLYLQMNSLRAEDTAVYYCAKESSGWFGAFDYWGQGTLVTVSS VL: EIVLTQSPDFQSVTPKEKVTITCRASQSIGSSLHWYQQKPDQSPKLLIKYASQSFSGVPSRFSGSGSGTDFTLTINSLEAEDAAAYYCHQSSSLPITFGQGTRLEIK | – | – | binds

— patent JP2005168497A (dated 2005)
